PMC11101478, “Structural mechanism of bacteriophage lambda tail’s interaction with the bacterial receptor” (Nature Communications, 2024)

B1: gpI (bacteriophage lambda, in the purified tail) (natural protein)
chain: MAATHTLPLASPGMARICLYGDLQRFGRRIDLRVKTGAEAIRALATQLPAFRQKLSDGWYQVRIAGRDVSTSGLTAQLHETLPDGAVIHIVPRVAGAKSGGVFQIVLGAAAIAGSFFTAGATLAAWGAAIGAGGMTGILFSLGASMVLGGVAQMLAPKARTPRIQTTDNGKQNTYFSSLDNMVAQGNVLPVLYGEMRVGSRVVSQEISTADEGDGGQVVVIGR
notes: gpI of bacteriophage lambda: unresolved N-terminal domain, helices H1 and H2, plug domain (159-175), beta-strands joined by loops; in the open structure only residues from 167 onward are seen; Three units in the tail tip; source: E. coli BL21 (DE3) pLysS, as part of the purified lambda tail
B2: Shigella sonnei 3070 LamB (receptor, UniProt Q3YUU9 26-446, looked up)
chain: VDFHGYARSGIGWTGSGGEQQCFQTTGAQSKYRLGNECETYAELKLGQEVWKEGDKSFYFDTNVAYSVAQQNDWEATDPAFREANVQGKNLIEWLPGSTIWAGKRFYQRHDVHMIDFYYWDISGPGAGLENIDVGFGKLSLAATRSSEAGGSSSFASNNIYDYTNETANDVFDVRLAQMEINPGGTLELGVDYGRANLRDNYRLVDGASKDGWLFTAEHTQSVLKGFNKFVVQYATDSMTSQGKGLSQGSGVAFDNEKFAYNINNNGHMLRILDHGAISMGDNWDMMYVGMYQDINWDNDNGTKWWTVGIRPMYKWTPIMSTVMEIGYDNVESQRTGDKNNQYKITLAQQWQAGDSIWSRPAIRVFATYAKWDEKWGYDYNGDSKVNPNYGKAVPADFNGGSFGRGDSDEWTFGAQMEIWW
notes: LamB (maltoporin) of Shigella sonnei 3070; own N-terminal signal peptide replaced by the OMPG signal peptide, Twin-Strep-tag after the signal peptide; differs from E. coli LamB in seven amino acids within the 381-390 region; Used in 0.02% DDM for BLI and for the gpJ713 complex, and in an MSP2N2 nanodisc (E. coli polar lipids) for the tail complex; also called ssLamB; LamB from Shigella sonnei …
B3: gpJ713 (C-terminal truncation of bacteriophage lambda gpJ, starting from residue 713) (domain or fragment, UniProt P03749 713-1132, looked up)
chain: APAAPSRIELTPGYFQITATPHLAVYDPTVQFEFWFSEKQIADIRQVETSTRYLGTALYWIAASINIKPGHDYYFYIRSVNTVGKSAFVEAVGRASDDAEGYLDFFKGKITESHLGKELLEKVELTEDNASRLEEFSKEWKDASDKWNAMWAVKIEQTKDGKHYVAGIGLSMEDTEEGKLSQFLVAANRIAFIDPANGNETPMFVAQGNQIFMNDVFLKRLTAPTITSGGNPPAFSLTPDGKLTAKNADISGSVNANSGTLSNVTIAENCTINGTLRAEKIVGDIVKAASAAFPRQRESSVDWPSGTRTVTVTDDHPFDRQIVVLPLTFRGSKRTVSGRTTYSMCYLKVLMNGAVIYDGAANEAVQVFSRIVDMPAGRGNVILTFTLTSTRHSADIPPYTFASDVQVMVIKKQALGISVV
notes: holds FNIIIs, AHS, CSF and RBD; Trimer (C3 symmetry in the closed state map); also called central tail fiber; His-tagged gpJ713; source: E. coli BL21 (DE3), purified (nickel gravity column, gel filtration); not shown: 6xHis, N-terminal, kept
B4: gpL (bacteriophage lambda, in the purified tail) (natural protein)
chain: MQDIRQETLNECTRAEQSASVVLWEIDLTEVGGERYFFCNEQNEKGEPVTWQGRQYQPYPIQGSGFELNGKGTSTRPTLTVSNLYGMVTGMAEDMQSLVGGTVVRRKVYARFLDAVNFVNGNSYADPEQEVISRWRIEQCSELSAVSASFVLSTPTETDGAVFPGRIMLANTCTWTYRGDECGYSGPAVADEYDQPTSDITKDKCSKCLSGCKFRNNVGNFGGFLSINKLSQ
notes: gpL of bacteriophage lambda; consists of HDI and 4Fe-4S domains; Three units in the tail tip; also called baseplate hub protein; source: E. coli BL21 (DE3) pLysS, as part of the purified lambda tail
B5: gpJ (bacteriophage lambda tip protein, in the purified tail) (natural protein)
chain: MGKGSSKGHTPREAKDNLKSTQLLSVIDAISEGPIEGPVDGLKSVLLNSTPVLDTEGNTNISGVTVVFRAGEQEQTPPEGFESSGSETVLGTEVKYDTPITRTITSANIDRLRFTFGVQALVETTSKGDRNPSEVRLLVQIQRNGGWVTEKDITIKGKTTSQYLASVVMGNLPPRPFNIRMRRMTPDSTTDQLQNKTLWSSYTEIIDVKQCYPNTALVGVQVDSEQFGSQQVSRNYHLRGRILQVPSNYNPQTRQYSGIWDGTFKPAYSNNMAWCLWDMLTHPRYGMGKRLGAADVDKWALYVIGQYCDQSVPDGFGGTEPRITCNAYLTTQRKAWDVLSDFCSAMRCMPVWNGQTLTFVQDRPSDKTWTYNRSNVVMPDDGAPFRYSFSALKDRHNAVEVNWIDPNNGWETATELVEDTQAIARYGRNVTKMDAFGCTSRGQAHRAGLWLIKTELLETQTVDFSVGAEGLRHVPGDVIEICDDDYAGISTGGRVLAVNSQTRTLTLDREITLPSSGTALISLVDGSGNPVSVEVQSVTDGVKVKVSRVPDGVAEYSVWELKLPTLRQRLFRCVSIRENDDGTYAITAVQHVPEKEAIVDNGAHFDGEQSGTVNGVTPPAVQHLTAEVTADSGEYQVLARWDTPKVVKGVSFLLRLTVTADDGSERLVSTARTTETTYRFTQLALGNYRLTVRAVNAWGQQGDPASVSFRIAAPAAPSRIELTPGYFQITATPHLAVYDPTVQFEFWFSEKQIADIRQVETSTRYLGTALYWIAASINIKPGHDYYFYIRSVNTVGKSAFVEAVGRASDDAEGYLDFFKGKITESHLGKELLEKVELTEDNASRLEEFSKEWKDASDKWNAMWAVKIEQTKDGKHYVAGIGLSMEDTEEGKLSQFLVAANRIAFIDPANGNETPMFVAQGNQIFMNDVFLKRLTAPTITSGGNPPAFSLTPDGKLTAKNADISGSVNANSGTLSNVTIAENCTINGTLRAEKIVGDIVKAASAAFPRQRESSVDWPSGTRTVTVTDDHPFDRQIVVLPLTFRGSKRTVSGRTTYSMCYLKVLMNGAVIYDGAANEAVQVFSRIVDMPAGRGNVILTFTLTSTRHSADIPPYTFASDVQVMVIKKQALGISVV
notes: Tip protein gpJ of bacteriophage lambda, 1132 residues: hub domains (HDII-ins1, HDII-ins2, HDII, HDIII, HDIV, OB), FNIII-1, FNIII-2, AHS, CSF, RBD; also called baseplate hub protein; central tail fiber protein; source: E. coli BL21 (DE3) pLysS, as part of the purified lambda tail
B6: gpM (bacteriophage lambda tail protein, in the purified tail) (natural protein)
chain: MKTFRWKVKPGMDVASVPSVRKVRFGDGYSQRAPAGLNANLKTYSVTLSVPREEATVLESFLEEHGGWKSFLWTPPYEWRQIKVTCAKWSSRVSMLRVEFSAEFEQVVN
notes: Tail protein gpM of bacteriophage lambda; also called gpM ring; gpM hexamer; source: E. coli BL21 (DE3) pLysS, as part of the purified lambda tail

Columns and labels:
[1] = molecular target: B5; assay: cryo-EM structure; purified lambda tail mixed with ssLamB in MSP2N2 nanodisc, room temperature 50 min, nickel column and Superose 6 Increase; open state of the tail; conditions: both partners purified
[2] = molecular target: the molecule itself; assay: as above
[3] = molecular target: the molecule itself; assay: cryo-EM structure; gpJ713 alone, closed state; C3 symmetry; map at 2.76 A
E. coli LamB A384S = molecular target: T1, E. coli LamB A384S (E. coli, UniProt P02943 26-446, A384S); assay: BLI; His-tagged gpJ713 (2 ug/mL) captured on Ni-NTA sensors; five concentrations of Twin-Strep-tagged LamB in lysis buffer with 0.02% DDM; dissociation in the same buffer; conditions: both partners purified
T1 construct: LamB (maltoporin) of E. coli with the single-point mutation A384S; the text says A384S; also called ecLamB A384S; source: E. coli BL21 (DE3), isolated from the outer membrane in DDM, purified (Strep-Tactin XT, gel filtration); not shown: Twin-Strep-tag, N-terminal, kept

E. coli LamB = molecular target: T2, E. coli LamB (E. coli, UniProt P02943 26-446); assay: as above; conditions: both partners purified
T2 construct: LamB (maltoporin) of E. coli; own N-terminal signal peptide replaced by the OMPG signal peptide, Twin-Strep-tag after the signal peptide; also called ecLamB; E. coli's LamB; source: E. coli BL21 (DE3), isolated from the outer membrane in DDM, purified (Strep-Tactin XT, gel filtration); not shown: Twin-Strep-tag, N-terminal, kept

[4] = molecular target: B4; assay: cryo-EM structure; purified lambda tail mixed with ssLamB in MSP2N2 nanodisc, room temperature 50 min, nickel column and Superose 6 Increase; open state of the tail; conditions: both partners purified

Does B1 bind [1]?
Result: binds

With B2 as the binder, how does the “stoichiometry N” value [2] read?
Its value is 3.

What does the source list for B3?
stoichiometry N [3]: 3; binding result (E. coli LamB A384S): binds; Kd (E. coli LamB): 1.76 nM

Does B4 bind [1]?
Result: binds

For B5, which “stoichiometry N” value [2] is on record?
The value was 3.

Does B6 bind [4]?
Result: binds

What about the “stoichiometry N” value [2] of the same binder?
Its value is 6.

Does B6 bind [1]?
Result: binds
